Test results from US20120225828A1 (PALATIN TECHNOLOGIES, published 2012).
Bridge positions count the residues as written; N and C are the ends. Square brackets hold non-standard residues; d marks the D form. 1Nal = N[C@@H](Cc1cccc2ccccc12)C(=O)O; Cit = NC(=O)NCCC[C@H](N)C(=O)O; Nle = CCCC[C@H](N)C(=O)O; Orn = NCCC[C@H](N)C(=O)O; Dab = NCC[C@H](N)C(=O)O; Dap = NC[C@H](N)C(=O)O

B1: Ac-Nle-cyclo(Glu-His-D-Phe-Gly-Dab)-Trp-NH2 (peptide)
peptide: Ac-[Nle]EH[dF]G[Dab]W-NH2
modifications: lactam 2-6
SMILES: CCCC[C@H](NC(C)=O)C(=O)N[C@H]1CCC(=O)NCC[C@@H](C(=O)N[C@@H](Cc2c[nH]c3ccccc23)C(N)=O)NC(=O)CNC(=O)[C@@H](Cc2ccccc2)NC(=O)[C@H](Cc2c[nH]cn2)NC1=O
B2: Ac-Nle-cyclo(Asp-His-D-Phe-Arg-Dap)-Trp-NH2 (peptide)
peptide: Ac-[Nle]DH[dF]R[Dap]W-NH2
modifications: lactam 2-6
SMILES: CCCC[C@H](NC(C)=O)C(=O)N[C@H]1CC(=O)NC[C@@H](C(=O)N[C@@H](Cc2c[nH]c3ccccc23)C(N)=O)NC(=O)[C@H](CCCNC(=N)N)NC(=O)[C@@H](Cc2ccccc2)NC(=O)[C@H](Cc2c[nH]cn2)NC1=O
B3: Ac-Nle-cyclo(Glu-His-D-Phe-Ala-Dab)-Trp-NH2 (peptide)
peptide: Ac-[Nle]EH[dF]A[Dab]W-NH2
modifications: lactam 2-6
SMILES: CCCC[C@H](NC(C)=O)C(=O)N[C@H]1CCC(=O)NCC[C@@H](C(=O)N[C@@H](Cc2c[nH]c3ccccc23)C(N)=O)NC(=O)[C@H](C)NC(=O)[C@@H](Cc2ccccc2)NC(=O)[C@H](Cc2c[nH]cn2)NC1=O
B4: Ac-Nle-cyclo(Glu-His-D-Phe-Ala-Dab)-NH2 (peptide)
peptide: Ac-[Nle]EH[dF]A[Dab]-NH2
modifications: lactam 2-6
SMILES: CCCC[C@H](NC(C)=O)C(=O)N[C@H]1CCC(=O)NCC[C@@H](C(N)=O)NC(=O)[C@H](C)NC(=O)[C@@H](Cc2ccccc2)NC(=O)[C@H](Cc2c[nH]cn2)NC1=O
B5: Ac-Nle-cyclo(Glu-His-D-Phe-Arg-Dab)-Lys-NH2 (peptide)
peptide: Ac-[Nle]EH[dF]R[Dab]K-NH2
modifications: lactam 2-6
SMILES: CCCC[C@H](NC(C)=O)C(=O)N[C@H]1CCC(=O)NCC[C@@H](C(=O)N[C@@H](CCCCN)C(N)=O)NC(=O)[C@H](CCCNC(=N)N)NC(=O)[C@@H](Cc2ccccc2)NC(=O)[C@H](Cc2c[nH]cn2)NC1=O
B6: Ac-Nle-cyclo(Glu-His-D-Phe-Dab)-NH2 (peptide)
peptide: Ac-[Nle]EH[dF][Dab]-NH2
modifications: lactam 2-5
SMILES: CCCC[C@H](NC(C)=O)C(=O)N[C@H]1CCC(=O)NCC[C@@H](C(N)=O)NC(=O)[C@@H](Cc2ccccc2)NC(=O)[C@H](Cc2c[nH]cn2)NC1=O
B7: Ac-Nle-cyclo(Glu-His-D-Phe-Ala-Dab)-Trp-NH2 (SEQ ID NO: 51) (peptide)
peptide: Ac-[Nle]EH[dF]A[Dab]W-NH2
modifications: lactam 2-6
SMILES: CCCC[C@H](NC(C)=O)C(=O)N[C@H]1CCC(=O)NCC[C@@H](C(=O)N[C@@H](Cc2c[nH]c3ccccc23)C(N)=O)NC(=O)[C@H](C)NC(=O)[C@@H](Cc2ccccc2)NC(=O)[C@H](Cc2c[nH]cn2)NC1=O
B8: Ac-Nle-cyclo(Glu-His-D-Phe-Gly-Dab)-Trp-NH2 (SEQ ID NO: 50) (peptide)
peptide: Ac-[Nle]EH[dF]G[Dab]W-NH2
modifications: lactam 2-6
SMILES: CCCC[C@H](NC(C)=O)C(=O)N[C@H]1CCC(=O)NCC[C@@H](C(=O)N[C@@H](Cc2c[nH]c3ccccc23)C(N)=O)NC(=O)CNC(=O)[C@@H](Cc2ccccc2)NC(=O)[C@H](Cc2c[nH]cn2)NC1=O
B9: Ac-Nle-cyclo(Glu-His-D-Phe-Arg-Dab)-NH2 (peptide)
peptide: Ac-[Nle]EH[dF]R[Dab]-NH2
modifications: lactam 2-6
SMILES: CCCC[C@H](NC(C)=O)C(=O)N[C@H]1CCC(=O)NCC[C@@H](C(N)=O)NC(=O)[C@H](CCCNC(=N)N)NC(=O)[C@@H](Cc2ccccc2)NC(=O)[C@H](Cc2c[nH]cn2)NC1=O
B10: Ac-Nle-cyclo(Glu-His-D-Phe-Ala-Dab)-NH2 (SEQ ID NO: 48) (peptide)
peptide: Ac-[Nle]EH[dF]A[Dab]-NH2
modifications: lactam 2-6
SMILES: CCCC[C@H](NC(C)=O)C(=O)N[C@H]1CCC(=O)NCC[C@@H](C(N)=O)NC(=O)[C@H](C)NC(=O)[C@@H](Cc2ccccc2)NC(=O)[C@H](Cc2c[nH]cn2)NC1=O
B11: Ac-Nle-cyclo(Glu-His-D-Phe-Arg-Dab)-Trp-OH (peptide)
peptide: Ac-[Nle]EH[dF]R[Dab]W-OH
modifications: lactam 2-6
SMILES: CCCC[C@H](NC(C)=O)C(=O)N[C@H]1CCC(=O)NCC[C@@H](C(=O)N[C@@H](Cc2c[nH]c3ccccc23)C(=O)O)NC(=O)[C@H](CCCNC(=N)N)NC(=O)[C@@H](Cc2ccccc2)NC(=O)[C@H](Cc2c[nH]cn2)NC1=O
B12: Ac-Nle-cyclo(Glu-His-D-Phe-Arg-Dab)-NH2 (SEQ ID NO: 47) (peptide)
peptide: Ac-[Nle]EH[dF]R[Dab]-NH2
modifications: lactam 2-6
SMILES: CCCC[C@H](NC(C)=O)C(=O)N[C@H]1CCC(=O)NCC[C@@H](C(N)=O)NC(=O)[C@H](CCCNC(=N)N)NC(=O)[C@@H](Cc2ccccc2)NC(=O)[C@H](Cc2c[nH]cn2)NC1=O

What follows are binders tested against human melanocortin-1 receptor hMCR-1 expressed by the human melanoma cell line HBL (human, UniProt Q01726 1-317) (assay: cell-based or functional assay).
Chain of human melanocortin-1 receptor hMCR-1 expressed by the human melanoma cell line HBL (Q01726 whole entry): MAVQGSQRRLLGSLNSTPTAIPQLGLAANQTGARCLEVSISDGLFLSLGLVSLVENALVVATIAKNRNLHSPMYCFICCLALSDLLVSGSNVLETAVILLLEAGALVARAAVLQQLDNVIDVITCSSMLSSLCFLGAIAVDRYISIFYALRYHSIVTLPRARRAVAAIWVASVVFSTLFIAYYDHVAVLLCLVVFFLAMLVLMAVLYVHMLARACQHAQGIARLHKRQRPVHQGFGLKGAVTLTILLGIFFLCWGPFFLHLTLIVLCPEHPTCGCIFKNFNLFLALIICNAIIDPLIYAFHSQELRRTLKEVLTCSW

Row | MC-1 EC50 (average; cAMP HBL) [nM] | MC-1 Emax (average; cAMP HBL) [%] | Binder
1 | 4 | 59 | B1
2 | 0.195 | 88 | B2
3 | – | 91 | Ac-[Nle]EH[dF]R[Dap]W-NH2 (lactam 2-6) [Ac-Nle-cyclo(Glu-His-D-Phe-Arg-Dap)-Trp-NH2]
4 | 0.115 | 72 | B3
5 | – | 108 | Ac-[Nle]E[Dab][dF]R[Dab]W-NH2 (lactam 2-6) [Ac-Nle-cyclo(Glu-Dab-D-Phe-Arg-Dab)-Trp-NH2]
6 | – | 100 | Ac-[Nle]ER[dF]R[Dab]W-NH2 (lactam 2-6) [Ac-Nle-cyclo(Glu-Arg-D-Phe-Arg-Dab)-Trp-NH2 (SEQ ID NO: 53)]
7 | 0.007 | 70 | Ac-[Nle][Dap]H[dF]R[Dap]W-NH2 (linker 2-6 via C(:O)‑(CH2)2‑C(:O)) [Ac-Nle-cyclo(Dap-His-D-Phe-Arg-Dap)-Trp-NH2 with bridge C(═O)-(CH2)2-C(═O)]
8 | – | 86 | Ac-[Nle]EA[dF]R[Dab]W-NH2 (lactam 2-6) [Ac-Nle-cyclo(Glu-Ala-D-Phe-Arg-Dab)-Trp-NH2]
9 | – | 108 | Ac-[Nle]EK[dF]R[Dab]W-NH2 (lactam 2-6) [Ac-Nle-cyclo(Glu-Lys-D-Phe-Arg-Dab)-Trp-NH2]
10 | 44 | 73 | B4
11 | – | 109 | Ac-[Nle]E[Orn][dF]R[Dab]W-NH2 (lactam 2-6) [Ac-Nle-cyclo(Glu-Orn-D-Phe-Arg-Dab)-Trp-NH2]
12 | – | 97 | Ac-[Nle]E[Cit][dF]R[Dab]W-NH2 (lactam 2-6) [Ac-Nle-cyclo(Glu-Cit-D-Phe-Arg-Dab)-Trp-NH2]
13 | – | 86 | Ac-[Nle]EA[dF]R[Dab]W-NH2 (lactam 2-6) [Ac-Nle-cyclo(Glu-Ala-D-Phe-Arg-Dab)-Trp-NH2 (SEQ ID NO: 52)]
14 | 0.006 | 78 | Ac-[Nle][Dab]H[dF]R[Dap]W-NH2 (linker 2-6 via C(:O)‑(CH2)2‑C(:O)) [Ac-Nle-cyclo(Dab-His-D-Phe-Arg-Dap)-Trp-NH2 with bridge C(═O)-(CH2)2-C(═O)]
15 | 0.175 | 91 | B5
16 | – | 51 | B6
17 | – | 100 | Ac-[Nle]ER[dF]R[Dab]W-NH2 (lactam 2-6) [Ac-Nle-cyclo(Glu-Arg-D-Phe-Arg-Dab)-Trp-NH2]
18 | 0.115 | 72 | B7
19 | – | 72 | Ac-[Nle]EH[dF]R[Dab][1Nal]-NH2 (lactam 2-6) [Ac-Nle-cyclo(Glu-His-D-Phe-Arg-Dab)-Nal 1-NH2]
20 | 4 | 59 | B8
21 | 0.32 | 85 | B9
22 | 0.016 | 85 | Ac-[Nle][Dap]H[dF]R[Dab]W-NH2 (linker 2-6 via C(:O)‑(CH2)2‑C(:O)) [Ac-Nle-cyclo(Dap-His-D-Phe-Arg-Dab)-Trp-NH2 with bridge C(═O)-(CH2)2-C(═O)]
23 | 44 | 73 | B10
24 | – | 79 | B11
25 | 0.32 | 85 | B12
